Reference: publication PMC7323458 (Nature chemical biology, 2019)
Numbering of substitutions follows the chain as printed. Numbers in names are those of the source.

B1: wt C8-AcpP (octanoyl-AcpP) (natural protein, E. coli)
chain: MSTIEERVKKIIGEQLGVKQEEVTNNASFVEDLGADSLDTVELVMALEEEFDTEIPDEEAEKITTVQAAIDYINGHQA
modifications: amide-linked octanoyl (C8) pantetheine probe on the phosphopantetheine serine (S36); 15N, 2H labelled
B2: D38A C8-AcpP (natural protein, E. coli)
chain: B1 chain with D39A
modifications: amide-linked octanoyl (C8) pantetheine probe on the phosphopantetheine serine (S36); 15N, 2H labelled

Biological target: T1, β-ketoacyl-ACP-synthase I (FabB) (E. coli, UniProt P0A953 1-406)
T1 sequence: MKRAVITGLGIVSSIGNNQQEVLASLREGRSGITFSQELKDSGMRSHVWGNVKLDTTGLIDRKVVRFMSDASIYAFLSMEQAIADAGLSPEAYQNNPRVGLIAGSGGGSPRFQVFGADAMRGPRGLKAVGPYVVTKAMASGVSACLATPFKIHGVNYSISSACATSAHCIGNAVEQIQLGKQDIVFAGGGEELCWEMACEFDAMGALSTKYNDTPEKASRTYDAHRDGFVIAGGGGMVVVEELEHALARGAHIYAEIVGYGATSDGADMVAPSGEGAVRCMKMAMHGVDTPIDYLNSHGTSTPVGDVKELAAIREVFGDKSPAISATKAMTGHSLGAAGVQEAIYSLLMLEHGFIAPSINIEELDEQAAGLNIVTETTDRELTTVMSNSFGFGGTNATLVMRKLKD
Experiment: NMR titration

Row | Binder | Kd [µM]
1 | B1 | 37.6
2 | B2 | 167
